Columns and labels:
Experiment in all cases: non-reducing SDS-PAGE with Western blot
[1] = molecular target: soluble truncated gp120 from the CRF02_AG isolate (Sgp120t-AG) (HIV-1 clade CRF02_AG)
[2] = molecular target: truncated gp120 from the HIV-1 clade B isolate (gp120t-B) (HIV-1 clade B)
[3] = molecular target: truncated gp120 from the HIV-1 clade C isolate (gp120t-C) (HIV-1 clade C)
[4] = molecular target: truncated gp120 from the HIV-1 clade J isolate (gp120t-J) (HIV-1 clade J)

**Q.** For “soluble truncated gp120 from the CRF02_AG isolate (Sgp120t-AG) (domain or fragment)”, which stoichiometry N [1] is on record?
**A.** The stoichiometry N was 2.

**Q.** With “truncated gp120 from the HIV-1 clade B isolate (gp120t-B) (domain or fragment)” as the substance, how does the stoichiometry N [2] read?
**A.** Its stoichiometry N is 2.

**Q.** “truncated gp120 from the HIV-1 clade C isolate (gp120t-C) (domain or fragment)” was tested. Which stoichiometry N [3] did it give?
**A.** The stoichiometry N was 2.

**Q.** For “truncated gp120 from the HIV-1 clade J isolate (gp120t-J) (domain or fragment)”, which stoichiometry N [4] is on record?
**A.** The stoichiometry N was 2.

— PMC7349027
